The data set concerns the target T1, GST-SXL (Sex-lethal) (UniProt P19339).
T1 sequence (P19339 whole entry, looked up): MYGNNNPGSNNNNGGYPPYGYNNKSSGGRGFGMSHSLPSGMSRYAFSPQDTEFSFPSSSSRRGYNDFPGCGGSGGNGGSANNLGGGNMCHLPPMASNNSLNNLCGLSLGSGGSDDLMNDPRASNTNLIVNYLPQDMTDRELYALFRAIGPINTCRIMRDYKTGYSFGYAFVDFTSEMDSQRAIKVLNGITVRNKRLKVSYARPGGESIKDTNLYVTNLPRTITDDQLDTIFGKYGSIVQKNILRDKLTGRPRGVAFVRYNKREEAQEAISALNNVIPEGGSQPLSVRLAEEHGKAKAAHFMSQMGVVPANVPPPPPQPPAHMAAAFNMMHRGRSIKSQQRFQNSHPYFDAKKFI
Description: EMSA. Particulars: EMSA as in cited refs 28 and 40, buffer, salt and pH not stated, GST-SXL at 166, 55 and 18 ng/ul, SELEX binding at 30 C for 30 min in 100 ul.

The mark [1] stands for this setting: within 2-3-fold of tra Py-tract.

On to “UUUUUGUUGUUUUUUUU [tra non-sex-specific polypyrimidine tract/3' splice site RNA]”, for which the Kd turned out to be 1 nM.
Regarding “UUUUUUUUUCUUUUUUUUGU [Gs2 3' UTR SXL-binding site RNA (cDNA SELEX clone 10-15h_14)]”, under setting [1], the Kd is 1 nM.
“UUUUUUUCUUUUUUUUCU [TnI 5' UTR SXL-binding site RNA (cDNA SELEX clone 10-15h_5)]”: the Kd under setting [1] is 1 nM.

For orientation: Kd means the concentration at which binding is half-saturated.

Values taken from paper PMC8143406.
